B1: LY‐CoV555 (Bamlanivimab) (antibody, V domains shown)
VH: QVQLVQSGAEVKKPGSSVKVSCKASGGTFSNYAISWVRQAPGQGLEWMGRIIPILGIANYAQKFQGRVTITADKSTSTAYMELSSLRSEDTAVYYCARGYYEARHYYYYYAMDVWGQGTAVTVSS
VL: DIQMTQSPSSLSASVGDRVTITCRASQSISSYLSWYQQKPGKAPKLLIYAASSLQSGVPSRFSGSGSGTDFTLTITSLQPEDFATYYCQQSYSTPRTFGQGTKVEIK
B2: CT‐P59 (Regdanivimab) (antibody, V domains shown)
VH: QITLKESGPTLVKPTQTLTLTCSFSGFSLSTSGVGVGWIRQPPGKALEWLALIDWDDNKYHTTSLKTRLTISKDTSKNQVVLTMTNMDPVDTATYYCARIPGFLRYRNRYYYYGMDVWGQGTTVTVSS
VL: ELVLTQPPSVSAAPGQKVTISCSGSSSNIGNNYVSWYQQLPGTAPKLLIYDNNKRPSGIPDRFSGSKSGTSATLGITGLQTGDEADYYCGTWDSSLSAGVFGGGTELTVL
notes: also called Regdanvimab; Regkirona
B3: AZD8895 (Tixagevimab) (antibody, V domains shown)
VH: QMQLVQSGPEVKKPGTSVKVSCKASGFTFMSSAVQWVRQARGQRLEWIGWIVIGSGNTNYAQKFQERVTITRDMSTSTAYMELSSLRSEDTAVYYCAAPYCSSISCNDGFDIWGQGTMVTVSS
VL: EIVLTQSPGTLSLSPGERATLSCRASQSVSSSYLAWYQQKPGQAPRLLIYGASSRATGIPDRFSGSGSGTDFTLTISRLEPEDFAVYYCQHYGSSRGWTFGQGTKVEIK
B4: AZD1061 (Cilgavimab) (antibody, V domains shown)
VH: EVQLVESGGGLVKPGGSLRLSCAASGFTFRDVWMSWVRQAPGKGLEWVGRIKSKIDGGTTDYAAPVKGRFTISRDDSKNTLYLQMNSLKTEDTAVYYCTTAGSYYYDTVGPGLPEGKFDYWGQGTLVTVSS
VL: not shown
B5: BMS‐986414 (C135) (antibody, V domains shown)
VH: QVQLVESGGGVVQPGRSLRLSCAASGFTFSSYAMHWVRQAPGKGLEWVAVIPFDGRNKYYADSVTGRFTISRDNSKNTLYLQMNSLRAEDTAVYYCASSSGYLFHSDYWGQGTLVTVSS
VL: DIQMTQSPSTLSASVGDRVTITCRASQSISNWLAWFQQKPGKAPKLLIYEASSLESGVPSRFSGSGSGTEFTLTISSLQPDDFATYYCQQYNSYPWTFGQGTKVEIK
B6: BMS‐986413 (C144) (antibody, V domains shown)
VH: EVQLVESGGGLIQPGGSLRLSCAASGFTVSNNYMSWVRQAPGKGLEWVSVIYSGGSTYYADSVKGRFTISRDKSKNTLYLQMNRLRAEDTAVYYCAREGEVEGYNDFWSGYSRDRYYFDYWGQGTLVTVSS
VL: QSALTQPASVSGSPGQSITISCTGTSSDVGGYNYVSWYQQHPGKAPKLMIYDVSNRPSGVSNRFSGSKSGNTASLTISGLQAEDEADYYCSSYTSSSTRVFGTGTKVTVL
B7: S2H97 (antibody, V domains shown)
VH: QVRLVQSGAEVKKSGESLKISCKGSGYSFTSYWIGWVRQMPGKGLEWMGIIYPGDSDTRYSPSFQGQVTISADKSISTVYLQWSSLKASDTAMYYCARQWSHYTYDYYYWGQGTLVTISS
VL: QSVLTQPASVSGSPGQSITISCTGISSDVGGYNSVSWYQQHPGKAPKLMIYDVTNRPSGVSNRFSGSKSGNTASLTISGLQAEDEADYYCSSYTSSSTPPYVFGTGTKVSVL
B8: LY‐CoV016 (Etesevimab) (antibody, V domains shown)
VH: EVQLVESGGGLVQPGGSLRLSCAASGFTVSSNYMSWVRQAPGKGLEWVSVIYSGGSTFYADSVKGRFTISRDNSMNTLFLQMNSLRAEDTAVYYCARVLPMYGDYLDYWGQGTLVTVSS
VL: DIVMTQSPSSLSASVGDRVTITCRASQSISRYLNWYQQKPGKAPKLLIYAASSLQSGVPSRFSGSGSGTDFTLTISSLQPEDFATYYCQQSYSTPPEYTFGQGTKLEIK
B9: 8D2 (antibody, V domains shown)
VH: EVQLVESGGGLVQPGGSLRLSCAASGFTFSSYWMSWVRQAPGKGLEWVANINQDGSEKYYVDSVKGRFTISRDNAKNSLYLQVNSLRAEDTAVYYCARDWDYDILTGSWFGAFDIWGQGTTVTVSS
VL: DIQMTQSPSSLSASVGDRVTITCRASQGIRNDLGWYQQKPGKAPKRLIYAASSLQSGVPSRFSGSGSGTEFTLTISSLQPEDFATYYCLQHNSYPLTFGGGTKVEIK
B10: 3467 (antibody, V domains shown)
VH: QVQLQESGPGLVKPSETLSLTCTVSGGSISSYHWNWIRQPPGKGLEWIGYIYYSGNTNYNPSLKSRVSISTDTSKNQFSLKLSSVTAADTAVYYCVREMRRGYSGYDYWDLYAFDIWGQGTMVTVSS
VL: DIQLTQSPSFLSASVGDRVTITCRASQGISSYLAWYQQKPGKAPNLLIYAASTLQSGVPSRFSGSGSGTEFTLTISSLQPEDFATYYCQQLNSYPHTFGQGTKLEIK
notes: also called TRIANNI mouse‐derived antibody 3467
B11: REGN10933 (Casirivimab) (antibody, V domains shown)
VH: QVQLVESGGGLVKPGGSLRLSCAASGFTFSDYYMSWIRQAPGKGLEWVSYITYSGSTIYYADSVKGRFTISRDNAKSSLYLQMNSLRAEDTAVYYCARDRGTTMVPFDYWGQGTLVTVSS
VL: DIQMTQSPSSLSASVGDRVTITCQASQDITNYLNWYQQKPGKAPKLLIYAASNLETGVPSRFSGSGSGTDFTFTISGLQPEDIATYYCQQYDNLPLTFGGGTKVEIK
B12: REGN10987 (Imdevimab) (antibody, V domains shown)
VH: QVQLVESGGGVVQPGRSLRLSCAASGFTFSNYAMYWVRQAPGKGLEWVAVISYDGSNKYYADSVKGRFTISRDNSKNTLYLQMNSLRTEDTAVYYCASGSDYGDYLLVYWGQGTLVTVSS
VL: QSALTQPASVSGSPGQSITISCTGTSSDVGGYNYVSWYQQHPGKAPKLMIYDVSKRPSGVSNRFSGSKSGNTASLTISGLQSEDEADYYCNSLTSISTWVFGGGTKLTVL

Assays:
Assay in all cases: flow cytometry on cells
Settings in all cases: one partner purified
[1] = biological target: T1, SARS‐CoV‐2 spike membrane protein of the Wuhan‐Hu‐1 strain (SARS-CoV-2 Wuhan-Hu-1 (QHD43416.1), UniProt P0DTC2)
T1 construct: source: HEK293, transiently cotransfected (PEI) with a GFP plasmid, on the cell surface

[2] = biological target: T2, SARS‐CoV‐2 spike membrane protein of the Delta variant (B.1.617.2) (SARS-CoV-2, Delta variant B.1.617.2, strain)
T2 construct: also called Delta spike protein

[3] = biological target: T3, SARS‐CoV‐2 spike membrane protein of the Omicron variant (B.1.1.529) (SARS-CoV-2, Omicron variant B.1.1.529, …, strain)
T3 construct: also called Omicron spike protein

Binder | MdFI [1] | MdFI [2] | MdFI [3]
B1 | 355000 | 40000 | –
B2 | 131000 | 233000 | –
B3 | 250000 | 59000 | 73000
B4 | – | 468000 | 101000
B5 | – | 666000 | –
B6 | 340000 | 408000 | –
B7 | 58000 | 74000 | 296000
B8 | 282000 | 192000 | –
B9 | 37000 | – | –
B10 | 165000 | 31000 | 25000
B11 | 236000 | 148000 | 103000
B12 | 371000 | 471000 | –
